Measured values: patent publication US20250049939A1, “NOVEL FLT3 ANTIBODIES AND ANTIBODY-DRUG-CONJUGATES BASED THEREON, THERAPEUTIC METHODS AND USES THEREOF IN COMBINATION WITH TYROSINE KINASE INHIBITORS” (TUBULIS GmbH, priority 2021, published 2025)

T1: FLT3 as expressed on FLT3 positive human leukemia and lymphoma cell lines (e.g. MOLM-13) (human) (UniProt P36888)
T1 sequence (looked up): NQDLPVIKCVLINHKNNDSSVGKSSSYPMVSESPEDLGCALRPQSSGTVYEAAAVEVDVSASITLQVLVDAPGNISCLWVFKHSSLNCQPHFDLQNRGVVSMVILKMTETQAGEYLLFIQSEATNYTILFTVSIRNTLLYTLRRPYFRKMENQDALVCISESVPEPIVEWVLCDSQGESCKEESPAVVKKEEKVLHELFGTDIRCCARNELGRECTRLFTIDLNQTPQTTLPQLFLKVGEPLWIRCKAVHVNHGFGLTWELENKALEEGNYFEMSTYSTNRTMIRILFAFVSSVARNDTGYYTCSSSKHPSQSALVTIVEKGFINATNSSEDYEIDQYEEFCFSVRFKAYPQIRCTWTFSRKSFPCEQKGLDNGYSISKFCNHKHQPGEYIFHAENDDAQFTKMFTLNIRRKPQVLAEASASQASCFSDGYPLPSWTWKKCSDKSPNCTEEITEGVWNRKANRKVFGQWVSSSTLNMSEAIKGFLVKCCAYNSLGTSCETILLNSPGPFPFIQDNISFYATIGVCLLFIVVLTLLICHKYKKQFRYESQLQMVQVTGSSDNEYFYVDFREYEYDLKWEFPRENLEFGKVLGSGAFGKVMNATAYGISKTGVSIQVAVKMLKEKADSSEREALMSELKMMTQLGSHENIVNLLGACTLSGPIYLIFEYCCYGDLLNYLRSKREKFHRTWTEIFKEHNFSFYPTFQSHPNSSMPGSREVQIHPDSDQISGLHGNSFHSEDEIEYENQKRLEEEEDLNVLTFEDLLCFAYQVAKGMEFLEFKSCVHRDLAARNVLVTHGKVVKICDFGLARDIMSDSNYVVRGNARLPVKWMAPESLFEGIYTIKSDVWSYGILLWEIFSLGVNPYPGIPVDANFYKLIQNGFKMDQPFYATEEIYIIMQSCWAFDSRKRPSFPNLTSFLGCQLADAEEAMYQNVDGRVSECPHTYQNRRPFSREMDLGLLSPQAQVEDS

B1: 19H5 chimeric anti-FLT3 monoclonal antibody (antibody, V domains shown)
VH: MVQPSQTLSLTCTVSGFSLTSYNVNWVRQPPGKGLEWIGAMWRGGGTDYNPALKSRLSISRDTSKSQVFLKMNRLQTEDTAIYFCTRGFGDYWGQGVMVTVSS
VL: DVQMTQSPSSMSASLGDRVTFTCQASQDIGNNLIYFQQKPGKSPRRMICCATNLAHGVPSRFSGSRSGSDYSLTLVSLESEDVADYHCLQYEHYPRTFGGGTKLELKR
B2: deglycosylated 20D9-ADC (antibody, V domains shown)
VH: DVMLVESGGGLVQPGRSLKLSCVASGFTFNNYWMTWIRQAPGKGLEWIASITKTGGGTYYPDSVKGRFTISRDNAKSTLYLQMNSLRSEDTATYYCTTLQQLGVMDAWGQGASVTVSS
VL: DVQMTQSPSVLSASVGDRITLNCKASQNINKELNWYQQKLGEAPKLLIYNTNNLQTGIPSRFSGSGSGTDYTLTISSLQPEDVATYFCFQHKSWPLTFGSGTKLEIKR

Legend:
[1] = biological target: recombinant human FLT3 protein (human) (UniProt P36888); experiment: ELISA on recombinant human FLT3, normalized to BSA control
[2] = biological target: T1, FLT3 as expressed on FLT3 positive human leukemia and lymphoma cell lines (e.g. MOLM-13) (human); experiment: cell-based or functional assay

| Binder | Kd [1] [µg/mL] | IC50 of cytotoxicity in MOLM-13 cells, 96 h, resazurin [2] [µg/mL] |
| --- | --- | --- |
| B1 | 0.134 |  |
| B2 |  | 0.474 |
